Measured values from patent publication US20240059799A1 (Pfizer, published 2024).

Biological target: T1, recombinant human TL1A (human, UniProt O95150 71-251)
T1 construct: homotrimer; biotinylated for SPR capture; the ELISA paragraphs say only 'recombinant TL1A'; also called TNFSF15
T1 chain: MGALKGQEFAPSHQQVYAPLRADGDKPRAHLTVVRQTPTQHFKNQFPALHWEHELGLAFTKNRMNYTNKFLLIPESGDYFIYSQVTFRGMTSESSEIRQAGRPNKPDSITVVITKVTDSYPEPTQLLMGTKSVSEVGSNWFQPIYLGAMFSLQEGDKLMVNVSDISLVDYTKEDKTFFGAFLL
Assay: competition ELISA vs bio-TL1A-0002
Description: For this competition ELISA assay procedure, 96-well high binding plates (Corning, product number 3590) were coated with 1 μg/mL recombinant TL1A in 100 μL/well in Phospate Buffered Saline (PBS) overnight at 4° C. Plates were then blocked in PBS+0.02% casein solution and washed with PBS+0.05% Tween-20 following standard ELISA protocol. […] Plates were washed with PBS+0.05% Tween-20 following standard ELISA protocol, and Streptavidin-HRP (Southern Biotech, product number 7100-05) diluted to 1:10,000 in assay buffer was added to plates and incubated for 25-30 minutes at room temperature. Next, the plates were washed with PBS+0.05% Tween-20 following standard ELISA protocol, and then TMB substrate (BioFX Laboratories, catalog number TMBW-0100-01) was added to plates. Reactions were stopped after approximately 5 minutes by adding 0.18 M ortho-phosphoric acid to each well and absorbance was read at 450 nm.

Binder	Bioactivity relative to TL1A-0002 [fold]	IC50 [nM]
TL1A-0086 (antibody, IgG1, V domains shown, IgG1/kappa variant of TL1A-0002) VH: QVQLVQSGAEVKKPGASVKVSCKASGYDFTYYGISWVRQAPGQGLEWMGWASTYNGNTHYAPSLQGRVTMTTDTSTRTAYMELRSLRSDDTAVYYCARENYYGSGAYRGGMDVWGQGTTVTVSS VL: EIVLTQSPATLSLSPGERATLSCRASQSVSSYLAWYQQKPGQAPRLLIYDASNRATGIPARFSGSGSGTDFTLTISSLEPEDFAVYYCQQRSNWPWTFGQGTKVEIKR	1.1	5
TL1A-0160 (antibody, IgG1, V domains shown, IgG1/kappa variant of TL1A-0002) VH: QVQLVQSGAEVKKPGASVKVSCKASGYDFTYYGISWVRQAPGQGLEWMGWISTYNGNEHYAPSLQGRVTMTTDTSTRTAYMELRSLRSDDTAVYYCARENYYGSGLYRGGMDVWGQGTTVTVSS VL: EIVLTQSPATLSLSPGERATLSCRASQSVSSYLAWYQQKPGQAPRLLIYDASNRATGIPARFSGSGSGTDFTLTISSLEPEDFAVYYCQQRSNWPWTFGQGTKVEIKR	2	9.1
TL1A-0194 (antibody, IgG1, V domains shown, IgG1/kappa variant of TL1A-0002) VH: QVQLVQSGAEVKKPGASVKVSCKASGYDFTYYGISWVRQAPGQGLEWMGWISTYNGNTHYARMLQGRVTMTTDTSTRTAYMELRSLRSDDTAVYYCAREQYYGSGAFRGGMDVWGQGTTVTVSS VL: EIVLTQSPATLSLSPGERATLSCRASQSVSSYLAWYQQKPGQAPRLLIYDASNRATGIPARFSGSGSGTDFTLTISSLEPEDFAVYYCQQRSNWPWTFGQGTKVEIKR	1.8	8.3
TL1A-0093 (antibody, IgG1, V domains shown, IgG1/kappa variant of TL1A-0002) VH: QVQLVQSGAEVKKPGASVKVSCKASGYDFTYYGISWVRQAPGQGLEWMGWISAYNANTHYAPSLQGRVTMTTDTSTRTAYMELRSLRSDDTAVYYCARENYYGSGAYRGGMDVWGQGTTVTVSS VL: EIVLTQSPATLSLSPGERATLSCRASQSVSSYLAWYQQKPGQAPRLLIYDASNRATGIPARFSGSGSGTDFTLTISSLEPEDFAVYYCQQRSNWPWTFGQGTKVEIKR	1.3	5.9
TL1A-0097 (antibody, IgG1, V domains shown, IgG1/kappa variant of TL1A-0002) VH: QVQLVQSGAEVKKPGASVKVSCKASGYDFTYYGISWVRQAPGQGLEWMGWISTYNGNTHYARMLQGRVTMTTDTSTRTAYMELRSLRSDDTAVYYCAREQYYGSGAYRGGMDVWGQGTTVTVSS VL: EIVLTQSPATLSLSPGERATLSCRASQSVSSYLAWYQQKPGQAPRLLIYDASNRATGIPARFSGSGSGTDFTLTISSLEPEDFAVYYCQQRSNWPWTFGQGTKVEIKR	2.2	10
TL1A-0088 (antibody, IgG1, V domains shown, IgG1/kappa variant of TL1A-0002) VH: QVQLVQSGAEVKKPGASVKVSCKASGYDFTYYGISWVRQAPGQGLEWMGWISTYGGNTHYAPSLQGRVTMTTDTSTRTAYMELRSLRSDDTAVYYCARENYYGSGAYRGGMDVWGQGTTVTVSS VL: EIVLTQSPATLSLSPGERATLSCRASQSVSSYLAWYQQKPGQAPRLLIYDASNRATGIPARFSGSGSGTDFTLTISSLEPEDFAVYYCQQRSNWPWTFGQGTKVEIKR	1.4	6.5
TL1A-0090 (antibody, IgG1, V domains shown, IgG1/kappa variant of TL1A-0002) VH: QVQLVQSGAEVKKPGASVKVSCKASGYDFTYYGISWVRQAPGQGLEWMGWISTYNTGTHYAPSLQGRVTMTTDTSTRTAYMELRSLRSDDTAVYYCARENYYGSGAYRGGMDVWGQGTTVTVSS VL: EIVLTQSPATLSLSPGERATLSCRASQSVSSYLAWYQQKPGQAPRLLIYDASNRATGIPARFSGSGSGTDFTLTISSLEPEDFAVYYCQQRSNWPWTFGQGTKVEIKR	1	4.5
TL1A-0091 (antibody, IgG1, V domains shown, IgG1/kappa variant of TL1A-0002) VH: QVQLVQSGAEVKKPGASVKVSCKASGYDFTYYGISWVRQAPGQGLEWMGWISTYNTVTHYAQKLQGRVTMTTDTSTRTAYMELRSLRSDDTAVYYCARENYYGSGAYRGGMDVWGQGTTVTVSS VL: EIVLTQSPATLSLSPGERATLSCRASQSVSSYLAWYQQKPGQAPRLLIYDASNRATGIPARFSGSGSGTDFTLTISSLEPEDFAVYYCQQRSNWPWTFGQGTKVEIKR	1.2	5.4
TL1A-0147 (antibody, IgG1, V domains shown, IgG1/kappa variant of TL1A-0002) VH: QVQLVQSGAEVKKPGASVKVSCKASGYDFTYYGISWVRQAPGQGLEWMGWISTYNGNEHYAQKLQGRVTMTTDTSTRTAYMELRSLRSDDTAVYYCARENYYGSGAYRGGMDVWGQGTTVTVSS VL: EIVLTQSPATLSLSPGERATLSCRASQSVSSYLAWYQQKPGQAPRLLIYDASNRATGIPARFSGSGSGTDFTLTISSLEPEDFAVYYCQQRSNWPWTFGQGTKVEIKR	1.6	7.2
TL1A-0089 (antibody, IgG1, V domains shown, IgG1/kappa variant of TL1A-0002) VH: QVQLVQSGAEVKKPGASVKVSCKASGYDFTYYGISWVRQAPGQGLEWMGWISTYNTGTHYAQKLQGRVTMTTDTSTRTAYMELRSLRSDDTAVYYCARENYYGSGAYRGGMDVWGQGTTVTVSS VL: EIVLTQSPATLSLSPGERATLSCRASQSVSSYLAWYQQKPGQAPRLLIYDASNRATGIPARFSGSGSGTDFTLTISSLEPEDFAVYYCQQRSNWPWTFGQGTKVEIKR	1.2	5.4
TL1A-0098 (antibody, IgG1, V domains shown, IgG1/kappa variant of TL1A-0002) VH: QVQLVQSGAEVKKPGASVKVSCKASGYDFTYYGISWVRQAPGQGLEWMGWISTYNGNTHYARMLQGRVTMTTDTSTRTAYMELRSLRSDDTAVYYCAREEYYGSGAYRGGMDVWGQGTTVTVSS VL: EIVLTQSPATLSLSPGERATLSCRASQSVSSYLAWYQQKPGQAPRLLIYDASNRATGIPARFSGSGSGTDFTLTISSLEPEDFAVYYCQQRSNWPWTFGQGTKVEIKR	1.5	6.6
TL1A-0094 (antibody, IgG1, V domains shown, IgG1/kappa variant of TL1A-0002) VH: QVQLVQSGAEVKKPGASVKVSCKASGYDFTYYGISWVRQAPGQGLEWMGWISTYNGNTHYARMLQGRVTMTTDTSTRTAYMELRSLRSDDTAVYYCARESYYGSGAYRGGMDVWGQGTTVTVSS VL: EIVLTQSPATLSLSPGERATLSCRASQSVSSYLAWYQQKPGQAPRLLIYDASNRATGIPARFSGSGSGTDFTLTISSLEPEDFAVYYCQQRSNWPWTFGQGTKVEIKR	1.2	5.5
TL1A-0087 (antibody, IgG1, V domains shown, IgG1/kappa variant of TL1A-0002) VH: QVQLVQSGAEVKKPGASVKVSCKASGYDFTYYGISWVRQAPGQGLEWMGWISAYNGNTHYAPSLQGRVTMTTDTSTRTAYMELRSLRSDDTAVYYCARENYYGSGAYRGGMDVWGQGTTVTVSS VL: EIVLTQSPATLSLSPGERATLSCRASQSVSSYLAWYQQKPGQAPRLLIYDASNRATGIPARFSGSGSGTDFTLTISSLEPEDFAVYYCQQRSNWPWTFGQGTKVEIKR	1.1	4.8
TL1A-0096 (antibody, IgG1, V domains shown, IgG1/kappa variant of TL1A-0002) VH: QVQLVQSGAEVKKPGASVKVSCKASGYDFTYYGISWVRQAPGQGLEWMGWISTYNGNTHYARMLQGRVTMTTDTSTRTAYMELRSLRSDDTAVYYCAREVYYGSGAYRGGMDVWGQGTTVTVSS VL: EIVLTQSPATLSLSPGERATLSCRASQSVSSYLAWYQQKPGQAPRLLIYDASNRATGIPARFSGSGSGTDFTLTISSLEPEDFAVYYCQQRSNWPWTFGQGTKVEIKR	2.3	10.3
TL1A-0167 (antibody, human IgG1, kappa, V domains shown, TL1A-0002 heavy chain with R(H76)S, TL1A-0002 light chain) VH: QVQLVQSGAEVKKPGASVKVSCKASGYDFTYYGISWVRQAPGQGLEWMGWISTYNGNTHYARMLQGRVTMTTDTSTSTAYMELRSLRSDDTAVYYCARENYYGSGAYRGGMDVWGQGTTVTVSS VL: EIVLTQSPATLSLSPGERATLSCRASQSVSSYLAWYQQKPGQAPRLLIYDASNRATGIPARFSGSGSGTDFTLTISSLEPEDFAVYYCQQRSNWPWTFGQGTKVEIKR	0.9	4.2
TL1A-0095 (antibody, IgG1, V domains shown, IgG1/kappa variant of TL1A-0002) VH: QVQLVQSGAEVKKPGASVKVSCKASGYDFTYYGISWVRQAPGQGLEWMGWISTYNGNTHYARMLQGRVTMTTDTSTRTAYMELRSLRSDDTAVYYCARETYYGSGAYRGGMDVWGQGTTVTVSS VL: EIVLTQSPATLSLSPGERATLSCRASQSVSSYLAWYQQKPGQAPRLLIYDASNRATGIPARFSGSGSGTDFTLTISSLEPEDFAVYYCQQRSNWPWTFGQGTKVEIKR	2	8.8
TL1A-0193 (antibody, IgG1, V domains shown, IgG1/kappa variant of TL1A-0002) VH: QVQLVQSGAEVKKPGASVKVSCKASGYDFTYYGISWVRQAPGQGLEWMGWISTYNGNTHYARMLQGRVTMTTDTSTRTAYMELRSLRSDDTAVYYCAREQYYGSGEYRGGMDVWGQGTTVTVSS VL: EIVLTQSPATLSLSPGERATLSCRASQSVSSYLAWYQQKPGQAPRLLIYDASNRATGIPARFSGSGSGTDFTLTISSLEPEDFAVYYCQQRSNWPWTFGQGTKVEIKR	2.7	12
TL1A-0092 (antibody, IgG1, V domains shown, IgG1/kappa variant of TL1A-0002) VH: QVQLVQSGAEVKKPGASVKVSCKASGYDFTYYGISWVRQAPGQGLEWMGWISTYNTVTHYAPSLQGRVTMTTDTSTRTAYMELRSLRSDDTAVYYCARENYYGSGAYRGGMDVWGQGTTVTVSS VL: EIVLTQSPATLSLSPGERATLSCRASQSVSSYLAWYQQKPGQAPRLLIYDASNRATGIPARFSGSGSGTDFTLTISSLEPEDFAVYYCQQRSNWPWTFGQGTKVEIKR	1.2	5.2
